Laboratory results: patent publication US6709650B1, “Spray-dried microparticles and their use as therapeutic vehicles” (Elam Drug Delivery Limited, priority 1991, dated 2004)

What was measured:
[1] = soluble HSA microcapsules dissolved in water or extracted; TLC or HPLC
Procedure: The beclomethasone was extracted from the microcapsules by the precipitation of the HSA in 10% TCA, and the supernatant was extracted into ethanol. The ethanol extract was analysed using HPLC, at a wavelength 242 nm.
The soluble microcapsules thus made were sampled, characterised and analysed for drug content.

[2] = Structural integrity of protein after spray-drying (gel filtration, tryptic peptide mapping, reverse phase, capillary electrophoresis); assay type: physicochemical; settings: microparticles dissolved in aqueous medium, compared with original material
Procedure: Under the conditions described, with a nozzle pressure of 7.5 bar, microparticles were produced with a particle size of 4.7 μm. These soluble microparticles were smooth and spherical with less than 1% of the particles over a particle size of 6 μm. The microparticles were dissolved in aqueous medium and the molecular weight of the HSA determined by gel filtration chromatography. The resultant chromatograms for the original and spray-dried HSA are shown (FIG. 1).
(§1) Alpha-1 antitrypsin derived from human serum was spray-dried under conditions similar to Example 1 with an inlet temperature of 150° C. and an outlet temperature of 80° C. In all other respects the conditions for drying were the same as Example 1. […] The microparticles were dissolved in aqueous medium and analysed for retention of protein structure and normal trypsin inhibitory activity, then compared to the original freeze dried starting material.

[3] = molecular target: T1, trypsin (Bos taurus, UniProt P00760); test: Trypsin inhibitory activity of spray-dried alpha-1 antitrypsin vs freeze dried starting material; assay type: biochemical; settings: within the experimental error
T1 construct: gene PRSS1
T1 sequence (P00760 24-246): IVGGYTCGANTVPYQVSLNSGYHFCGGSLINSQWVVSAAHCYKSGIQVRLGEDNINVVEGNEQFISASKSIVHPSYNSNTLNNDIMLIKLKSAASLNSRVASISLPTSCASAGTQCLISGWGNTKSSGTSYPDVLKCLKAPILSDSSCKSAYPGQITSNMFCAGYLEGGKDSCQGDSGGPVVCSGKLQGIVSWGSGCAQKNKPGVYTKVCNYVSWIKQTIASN
Procedure: as §1

## C[C@H]1C[C@H]2[C@@H]3CCC4=CC(=O)C=C[C@]4(C)[C@@]3(Cl)[C@@H](O)C[C@]2(C)[C@@]1(O)C(=O)CO [beclomethasone]
[1]
  state of the active compound on dissolution of the microcapsules: majority of the active compound was in the free state

## Alpha-1 antitrypsin: Alpha-1 antitrypsin derived from human serum, spray-dried to soluble microparticles of mean size 4.5 μm
[2]
  structural change of the protein after spray-drying: no significant structural changes
[3]
  retention of inhibitory activity after spray-drying: full retention of inhibitory activity
